Earlier results on 1 substance are cited in article PMC7300301.

The target of this series is FcRn (Homo sapiens) (UniProt P55899).
FcRn (Homo sapiens), sequence (P55899 24-297, chain 1 of 2): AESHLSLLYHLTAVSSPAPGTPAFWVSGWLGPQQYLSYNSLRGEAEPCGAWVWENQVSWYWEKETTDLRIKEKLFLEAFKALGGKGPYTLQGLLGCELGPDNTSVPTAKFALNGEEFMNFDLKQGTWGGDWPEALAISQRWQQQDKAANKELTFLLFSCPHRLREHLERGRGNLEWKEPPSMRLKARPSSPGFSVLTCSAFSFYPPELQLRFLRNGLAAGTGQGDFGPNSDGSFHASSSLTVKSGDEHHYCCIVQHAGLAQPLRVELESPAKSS
FcRn (Homo sapiens), sequence (partner, as listed by the source, chain 2 of 2): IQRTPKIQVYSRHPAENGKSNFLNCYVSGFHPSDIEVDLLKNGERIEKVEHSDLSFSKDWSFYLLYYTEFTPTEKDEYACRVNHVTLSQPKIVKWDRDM

Consider palivizumab, for which the Kd – broadly, the free concentration of one partner at which half of the binding sites on the other are occupied at equilibrium, for simple one-to-one binding – is 750 nM.
